B1: TEC (protein)
chain: MNFNTILEEILIKRSQQKKKTSPLNYKERLFVLTKSMLTYYEGRAEKKYRKGFIDVSKIKCVEIVKNDDGVIPCQNKYPFQVVHDANTLYIFAPSPQSRDLWVKKLKEEIKNNNNIMIKYHPKFWTDGSYQCCRQTEKLAPGCEKYNLFESSIRKALPPAPETKKRRPPPPIPLEEEDNSEEIVVAMYDFQAAEGHDLRLERGQEYLILEKNDVHWWRARDKYGNEGYIPSNYVTGKKSNNLDQYEWYCRNMNRSKAEQLLRSEDKEGGFMVRDSSQPGLYTVSLYTKFGGEGSSGFRHYHIKETTTSPKKYYLAEKHAFGSIPEIIEYHKHNAAGLVTRLRYPVSVKGKNAPTTAGFSYEKWEINPSELTFMRELGSGLFGVVRLGKWRAQYKVAIKAIREGAMCEEDFIEEAKVMMKLTHPKLVQLYGVCTQQKPIYIVTEFMERGCLLNFLRQRQGHFSRDVLLSMCQDVCEGMEYLERNSFIHRDLAARNCLVSEAGVVKVSDFGMARYVLDDQYTSSSGAKFPVKWCPPEVFNYSRFSSKSDVWSFGVLMWEVFTEGRMPFEKYTNYEVVTMVTRGHRLYQPKLASNYVYEVMLRCWQEKPEGRPSFEDLLRTIDELVECEETFGR
modifications: left off: small tags and cut ends
B2: AKT2 (protein)
chain: MNEVSVIKEGWLHKRGEYIKTWRPRYFLLKSDGSFIGYKERPEAPDQTLPPLNNFSVAECQLMKTERPRPNTFVIRCLQWTTVIERTFHVDSPDEREEWMRAIQMVANSLKQRAPGEDPMDYKCGSPSDSSTTEEMEVAVSKARAKVTMNDFDYLKLLGKGTFGKVILVREKATGRYYAMKILRKEVIIAKDEVAHTVTESRVLQNTRHPFLTALKYAFQTHDRLCFVMEYANGGELFFHLSRERVFTEERARFYGAEIVSALEYLHSRDVVYRDIKLENLMLDKDGHIKITDFGLCKEGISDGATMKTFCGTPEYLAPEVLEDNDYGRAVDWWGLGVVMYEMMCGRLPFYNQDHERLFELILMEEIRFPRTLSPEAKSLLAGLLKKDPKQRLGGGPSDAKEVMEHRFFLSINWQDVVQKKLLPPFKPQVTSEVDTRYFDDEFTAQSITITPPDRYDSLGLLELDQRTHFPQFSYSASIRE
modifications: left off: small tags and cut ends
B3: CSF1R (protein)
chain: YKYKQKPKYQVRWKIIESYEGNSYTFIDPTQLPYNEKWEFPRNNLQFGKTLGAGAFGKVVEATAFGLGKEDAVLKVAVKMLKSTAHADEKEALMSELKIMSHLGQHENIVNLLGACTHGGPVLVITEYCCYGDLLNFLRRKAEAMLGPSLSPGQDPEGGVDYKNIHLEKKYVRRDSGFSSQGVDTYVEMRPVSTSSNDSFSEQDLDKEDGRPLELRDLLHFSSQVAQGMAFLASKNCIHRDVAARNVLLTNGHVAKIGDFGLARDIMNDSNYIVKGNARLPVKWMAPESIFDCVYTVQSDVWSYGILLWEIFSLGLNPYPGILVNSKFYKLVKDGYQMAQPAFAPKNIYSIMQACWALEPTHRPTFQQICSFLQEQAQEDRRERDYTNLPSSSRSGGSGSSSSELEEESSSEHLTCCEQGDIAQPLLQPNNYQFC
modifications: left off: small tags and cut ends
B4: PTK2(FAK) (protein)
chain: MAAAYLDPNLNHTPNSSTKTHLGTGMERSPGAMERVLKVFHYFESNSEPTTWASIIRHGDATDVRGIIQKIVDSHKVKHVACYGFRLSHLRSEEVHWLHVDMGVSSVREKYELAHPPEEWKYELRIRYLPKGFLNQFTEDKPTLNFFYQQVKSDYMLEIADQVDQEIALKLGCLEIRRSYWEMRGNALEKKSNYEVLEKDVGLKRFFPKSLLDSVKAKTLRKLIQQTFRQFANLNREESILKFFEILSPVYRFDKECFKCALGSSWIISVELAIGPEEGISYLTDKGCNPTHLADFTQVQTIQYSNSEDKDRKGMLQLKIAGAPEPLTVTAPSLTIAENMADLIDGYCRLVNGTSQSFIIRPQKEGERALPSIPKLANSEKQGMRTHAVSVSETDDYAEIIDEEDTYTMPSTRDYEIQRERIELGRCIGEGQFGDVHQGIYMSPENPALAVAIKTCKNCTSDSVREKFLQEALTMRQFDHPHIVKLIGVITENPVWIIMELCTLGELRSFLQVRKYSLDLASLILYAYQLSTALAYLESKRFVHRDIAARNVLVSSNDCVKLGDFGLSRYMEDSTYYKASKGKLPIKWMAPESINFRRFTSASDVWMFGVCMWEILMHGVKPFQGVKNNDVIGRIENGERLPMPPNCPPTLYSLMTKCWAYDPSRRPRFTELKAQLSTILEEEKAQQEERMRMESRRQATVSWDSGGSDEAPPKPSRPGYPSPRSSEGFYPSPQHMVQTNHYQVSGYPGSHGITAMAGSIYPGQASLLDQTDSWNHRPQEIAMWQPNVEDSTVLDLRGIGQVLPTHLMEERLIRQQQEMEEDQRWLEKEERFLKPDVRLSRGSIDREDGSLQGPIGNQHIYQPVGKPDPAAPPKKPPRPGAPGHLGSLASLSSPADSYNEGVKLQPQEISPPPTANLDRSNDKVYENVTGLVKAVIEMSSKIQPAPPEEYVPMVKEVGLALRTLLATVDETIPLLPASTHREIEMAQKLLNSDLGELINKMKLAQQYVMTSLQQEYKKQMLTAAHALAVDAKNLLDVIDQARLKMLGQTRPH
modifications: left off: a dimerising Fc or GST
B5: AKT3 (protein)
chain: MSDVTIVKEGWVQKRGEYIKNWRPRYFLLKTDGSFIGYKEKPQDVDLPYPLNNFSVAKCQLMKTERPKPNTFIIRCLQWTTVIERTFHVDTPEEREEWTEAIQAVADRLQRQEEERMNCSPTSQIDNIGEEEMDASTTHHKRKTMNDFDYLKLLGKGTFGKVILVREKASGKYYAMKILKKEVIIAKDEVAHTLTESRVLKNTRHPFLTSLKYSFQTKDRLCFVMEYVNGGELFFHLSRERVFSEDRTRFYGAEIVSALDYLHSGKIVYRDLKLENLMLDKDGHIKITDFGLCKEGITDAATMKTFCGTPEYLAPEVLEDNDYGRAVDWWGLGVVMYEMMCGRLPFYNQDHEKLFELILMEDIKFPRTLSSDAKSLLSGLLIKDPNKRLGGGPDDAKEIMRHSFFSGVNWQDVYDKKLVPPFKPQVTSETDTRYFDEEFTAQTITITPPEKYDEDGMDCMDNERRPHFPQFSYSASGRE
modifications: left off: small tags and cut ends
B6: ZAP70 (protein)
chain: MPDPAAHLPFFYGSISRAEAEEHLKLAGMADGLFLLRQCLRSLGGYVLSLVHDVRFHHFPIERQLNGTYAIAGGKAHCGPAELCEFYSRDPDGLPCNLRKPCNRPSGLEPQPGVFDCLRDAMVRDYVRQTWKLEGEALEQAIISQAPQVEKLIATTAHERMPWYHSSLTREEAERKLYSGAQTDGKFLLRPRKEQGTYALSLIYGKTVYHYLISQDKAGKYCIPEGTKFDTLWQLVEYLKLKADGLIYCLKEACPNSSASNASGAAAPTLPAHPSTLTHPQRRIDTLNSDGYTPEPARITSPDKPRPMPMDTSVYESPYSDPEELKDKKLFLKRDNLLIADIELGCGNFGSVRQGVYRMRKKQIDVAIKVLKQGTEKADTEEMMREAQIMHQLDNPYIVRLIGVCQAEALMLVMEMAGGGPLHKFLVGKREEIPVSNVAELLHQVSMGMKYLEEKNFVHRDLAARNVLLVNRHYAKISDFGLSKALGADDSYYTARSAGKWPLKWYAPECINFRKFSSRSDVWSYGVTMWEALSYGQKPYKKMKGPEVMAFIEQGKRMECPPECPPELYALMSDCWIYKWEDRPDFLTVEQRMRACYYSLASKVEGPPGSTQKAEAACA
modifications: left off: small tags and cut ends
B7: ADRBK2(GRK3) (protein, UniProt P35626 1-688, looked up)
G protein-coupled receptor …: MADLEAVLADVSYLMAMEKSKATPAARASKRIVLPEPSIRSVMQKYLAERNEITFDKIFNQKIGFLLFKDFCLNEINEAVPQVKFYEEIKEYEKLDNEEDRLCRSRQIYDAYIMKELLSCSHPFSKQAVEHVQSHLSKKQVTSTLFQPYIEEICESLRGDIFQKFMESDKFTRFCQWKNVELNIHLTMNEFSVHRIIGRGGFGEVYGCRKADTGKMYAMKCLDKKRIKMKQGETLALNERIMLSLVSTGDCPFIVCMTYAFHTPDKLCFILDLMNGGDLHYHLSQHGVFSEKEMRFYATEIILGLEHMHNRFVVYRDLKPANILLDEHGHARISDLGLACDFSKKKPHASVGTHGYMAPEVLQKGTAYDSSADWFSLGCMLFKLLRGHSPFRQHKTKDKHEIDRMTLTVNVELPDTFSPELKSLLEGLLQRDVSKRLGCHGGGSQEVKEHSFFKGVDWQHVYLQKYPPPLIPPRGEVNAADAFDIGSFDEEDTKGIKLLDCDQELYKNFPLVISERWQQEVTETVYEAVNADTDKIEARKRAKNKQLGHEEDYALGKDCIMHGYMLKLGNPFLTQWQRRYFYLFPNRLEWRGEGESRQNLLTMEQILSVEETQIKDKKCILFRIKGGKQFVLQCESDPEFVQWKKELNETFKEAQRLLRRAPKFLNKPRSGTVELPKPSLCHRNSNGL

The molecules below were run on kinases of Table 6 on Myelin Basic Protein (MBP) (assay: Kinase assay using MBP substrate, ProQ Diamond stain (Table 6)). Settings: kinase printed on MBP-coated slide; 20 uM ATP, 30° C.; ProQ Diamond Microarray Stain; graded Strong/Weak/Negative.
Assay type: biochemical
Procedure, shortened: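 Bovine dephosphorylated MBP coated on aldehyde- or epoxy-glass slides, kinases printed on top; reaction buffer pH 7.5 with 4 mM MgCl2, 20 uM ATP, 5% DMSO, ± inhibitor, at 30° C. Phosphorylation detected by ProQ Diamond stain, 30 min in dark.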
For B1, the “MBP Kinase Activity” value was “Negative”.
B2 was tested, and the “MBP Kinase Activity” value was “Strong”.
With B3 the “MBP Kinase Activity” value was “Strong”.
In the case of B4, the “MBP Kinase Activity” value is reported as “Negative”.
In the case of B5, the “MBP Kinase Activity” value is reported as “Strong”.
In the case of B6, the “MBP Kinase Activity” value is reported as “Negative”.
B7 was tested, and the “MBP Kinase Activity” value was “Negative”.

From patent US20090099029A1, “Methods and substrates for conducting assays” (Invitrogen Corporation, priority 2005, published 2009)
